experiment: soluble on expression in E. coli; label from the status in PepcDB or PDB records

Sequence | soluble on expression in E. coli
MADPQGFIKYSRREPAHRPVPLRLMDHSEVYEKAPAGQIEEQAARCMDCGVPFCHEGCPLGNIIPEWNDLVRQGRWKEAYDRLHATNNFPEFTGRLCPAPCEGACVLGINDDSVTIKNVELEIVEKAFREGWVQPVIPSMSTGLSVAVVGSGPAGLAAAQQLTRAGHSVTVFERDDRLGGLMRYGVPEYKMENRWIDRRIEQMEAEGTTFQVGTSPRAAELALFDAILLATGTPVARELSVPGHDLNGIHAAMDYLTAQNRINEGDGEVSPINAKGKKVVIIGGGDTGTDCFGTALRQGAESVTQFDIRPRAPFQRADSTPWPMYPNLFRTATAHEEGEYIITGDESADEIAALGLAERAAGSTLGERKFAVNTVEFHGNNGHVTGLTGNQIRVVNGKREPIEGTEFPFEADLVLVALGFTGAEQGGLAHELGVGFDDRGRILRDSEYRSPTNSRVYIAGDNGRGQSLIVWAIAEGRACAAAIDADLMGETALPVAVAPQDVPLAVLEHHHHHH | not soluble
MSLRAGVTGGPQIITKVITMIKFVLDTSIFVNPDVRKKFGETPTEAMKTFLHYAENLFGKVEFYMPPGIYRELMHFVEEEEVSPDIELYIIKKPPNVHDIKIPAFVVYELIEDIRRRVDKGLRVAEKAVRESVIDTSNVDKIIQKLRRNYRKALREGILDSKEDFELILLAKEIDGIIVSADVGILTWAEKMGIKWVDAFKFKEVLSELVEKFKRSESEKERKEGHHHHHH | not soluble
MKNTFVYQAEKPVIKLLQITDPHLFKDESAELLGVNTQASFAQVLKEIQQENNEFDVILATGDLVQDSSDEGYIRFVEMMKPFNKPVFWIPGNHDFQPKMAEFLNQPPMNAAKHLLLGEHWQALLLDSQVYGVPHGQLSQHQLDLLKETLGKNPERYTLVVLHHHLLPTNSAWLDQHNLRNSHELAEVLAPFTNVKAILYGHIHQEVNSEWNGYQVMATPATCIQFKPDCQYFSLDTLQPGWREIELHSDGSIRTEVKRIQQAEFFPNMQEEGY | not soluble
MATKKATMIIEKDFKIAEIDKRIYGSFIEHLGRAVYGGIYEPGHPQADENGFRQDVIELVKELQVPIIRYPGGNFVSGYNWEDGVGPKEQRPRRLDLAWKSVETNEIGLNEFMDWAKMVGAEVNMAVNLGTRGIDAARNLVEYCNHPSGSYYSDLRIAHGYKEPHKIKTWCLGNEMDGPWQIGHKTAVEYGRIACEAAKVMKWVDPTIELVVCGSSNRNMPTFAEWEATVLDHTYDHVDYISLHQYYGNRDNDTANYLALSLEMDDFIRSVVAIADYVKAKKRSKKTIHLSFDEWNVWYHSNEADKLIEPWTVAPPLLEDIYNFEDALLVGCMLITLMKHADRVKIACLAQLVNVIAPIMTEKNGPAWKQTIYYPFMHASVYGRGVALHPVISSPKYDSKDFTDVPYLESIAVYNEEKEEVTIFAVNRDMEDALLLECDVRSFEDYRVIEHIVLEHDNVKQTNSAQSSPVVPHRNGDAQLSDRKVSATLPKLSWNVIRLGKR | soluble
MGSDKIHHHHHHMACGEFSGDDAAMKQTSFATAEYAGKKRQTRRERFLAEMNVVVPWARLEALIEPHYPKSGKVGRPPIGVPRMLRMYFLQQWYTLADEALEDALYDSQAMREFIGIDLGRENVPDATTLLKFRRLLEQHDLTSAILAEVNAHLTERGLLMRQGTVVDATIIAAPSSTKNEDGKRDPEMHQTKKGNQWHFGMKMHSGVDAESGLIHSVVCTAANEADVAHAHELLHGQESQVHGDSGYTGIQRRDEITTAQEEGRLRQDMDWRIAMKRGQLKAMPEGPAKAMHEWFERRKAQVRAIVEHPFHVIKNLFGYRKVSYRGISKNEARAKAHAALANLYIARRRLLAQGLSASAA | not soluble
MIDPVGLPDTFVRIVLVGSGNLATQTALALSEAASPPVQVWSRNAEHAERLASMLPGATATDRTEELLCDAELYLLAVSDHALESVAATLPPTSGIWAHTAGSMPMDTLRPYHAQIGVFYPLQTFSRERRVDYSSIPIYIEGNDESVVRLLESVARLISRNVLRCTSEQRLYLHLAAVFACNFTNHLYALSEQMLAAHGLPPRSLAPLIAETAAKVQEMSATEAQTGPAKRDDTNTLQKHLGLLNPYPDWQEIYRILSDSIRKMYGPKEQ | not soluble
MGHHHHHHSHMAPGGLFLPYHSLPQPDFLASCPTRHLKLCQCPGILAENPHQFSPTFPPGKGSCQHGALPGQVSLKEAAHTEMSLSGQDLFPSPAHPPLQPFWLPFSLCLSTPFLVADNELRLPKGQICPLHVFVLANRVVLKLCANSVWEHSKGIT | not soluble
